The record followed here is patent US6335176B1, “Incorporation of phosphorylation sites” (Pharmacopeia, Inc., priority 1998, dated 2002).

Bridge positions count the residues as written; N and C are the ends. Square brackets hold non-standard residues; d marks the D form. Ends that are not written are not given here. I, II: the chains in the order shown. pS = N[C@@H](COP(=O)(O)O)C(=O)O

For assay [1], the target named is T1, EpoR-Fc (Homo sapiens, UniProt P19235).
T1 construct: containing the extracellular domain of the erythropoietin receptor fused to the Fc region of human IgG
T1 sequence (P19235 25-250 limits assumed): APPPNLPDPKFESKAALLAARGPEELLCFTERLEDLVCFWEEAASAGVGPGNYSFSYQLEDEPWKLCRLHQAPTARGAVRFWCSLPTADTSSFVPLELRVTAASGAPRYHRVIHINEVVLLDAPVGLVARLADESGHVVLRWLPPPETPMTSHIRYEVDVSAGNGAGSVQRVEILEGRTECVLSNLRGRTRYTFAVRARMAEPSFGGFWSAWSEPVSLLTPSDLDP
Description: Saturation binding of Epo-Fc-[33P]phosphopeptide A to EpoR-Fc surface-coated plates. As for the experimental part: (§1) Ligand Binding Assays in Elisa Plate Format. Costar EIA 96-well microtiter plates (assay plates) were coated with 40 ul/well of a solution of anchoring antibody (˜1-5 ug/ml) or binding protein (0.1-0.5 ug/ml) in TBS and incubated overnight at 4° C. Plates were then blocked with 80 ul/well of 1% BSA/TBS for 30 min. Following removal of the blocking protein, 40 ul/well of receptor or receptor fusion protein (0.1-0.5 ug/ml) was added to the plate and incubated at ambient temperature for one hr. if an anchoring antibody step was used. The assay plate was then washed with TBS/0.01% BSA and 40 ul/well ligand at indicated concentrations was added. The assay plate was allowed to incubate at ambient temp. for ˜1-3 hr. with shaking and then washed three times with TBS/0.01% Tween 20 using a SkanWasher300 plate washer (Skatron, Sterling, Va.). Radiolabel was detected by the addition of 80 ul/well of Optiphase (Wallac, Turku, Finland) and the assay plate counted on a Wallace MicroBeta scintillation counter.
The cytokine receptor for erythropoietin was studied as a recombinant soluble Fc-fusion protein containing the extracellular domain of the erythropoietin receptor fused to the Fc region of human IgG. The ligand for this receptor, erythropoietin (Epo) was also prepared as an Fc-fusion, specifically as a fusion to the Fc region of mouse IgG. […]

The target in assay [2] is T2, CXC2 receptor (Homo sapiens, UniProt P25025).
T2 construct: expressed in transfected cells; host or cells: CHO cells
T2 sequence (P25025 1-360): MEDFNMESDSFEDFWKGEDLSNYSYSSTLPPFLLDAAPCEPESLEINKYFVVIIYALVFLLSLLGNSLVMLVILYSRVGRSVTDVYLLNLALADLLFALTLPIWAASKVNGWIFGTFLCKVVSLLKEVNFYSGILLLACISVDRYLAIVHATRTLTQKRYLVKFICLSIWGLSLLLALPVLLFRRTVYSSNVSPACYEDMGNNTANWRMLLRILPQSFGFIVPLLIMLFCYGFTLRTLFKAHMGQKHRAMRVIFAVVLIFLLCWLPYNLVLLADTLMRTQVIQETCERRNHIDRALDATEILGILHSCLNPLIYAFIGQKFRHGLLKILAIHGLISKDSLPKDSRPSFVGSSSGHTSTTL
Kind of assay: Binding of IL8-[33P]phosphopeptide A to CXC2 receptors on CHO cells. As for the experimental part:
(§2) Ligand Binding Assays using Cells or Membranes. Cultured cells expressing the receptor of interest were suspended to ˜1.6×10^6 per ml in DMEM containing 0.1% FBS. 100 ul aliquots were incubated in a 96-well U-bottom polypropylene microtiter plate (assay plate) containing the indicated ligands. After the appropriate incubation time (˜1-3 hrs) cells were transferred to 1.5 ml eppendorf tubes and centrifuged at 2000 rpm (358×g) for 2 min at 6° C., supernatants aspirated and cells resuspended in 1 ml cell media and centrifuged again. The washed cells were resuspended in 20 ul of cell media and transferred to a microtiter plate, 80 ul/well of Optiphase® (Wallac, Turku, Finland) scintillation cocktail added and plates counted in a Wallac MicroBeta scintillation counter. For cells or membranes harvested by filtration, transfers from the assay plate were made directly to a Millipore 1.2 um GF/C filter plate treated or untreated with 0.3% PEI. Wells were washed with DMEM (3×100 ul) and a final wash with 100 ul water. Scintillation cocktail was added as described above.
(§3) Several ligands for commonly studied receptor families, G protein-coupled receptors (GPCRs) and cytokine receptors were labeled using the reagent of the invention. […]

Assay [3] addresses T3, NK2 receptor (Rattus norvegicus, UniProt P16610).
T3 construct: expressed in transfected cells; host or cells: CHO cells
T3 sequence (P16610 1-390): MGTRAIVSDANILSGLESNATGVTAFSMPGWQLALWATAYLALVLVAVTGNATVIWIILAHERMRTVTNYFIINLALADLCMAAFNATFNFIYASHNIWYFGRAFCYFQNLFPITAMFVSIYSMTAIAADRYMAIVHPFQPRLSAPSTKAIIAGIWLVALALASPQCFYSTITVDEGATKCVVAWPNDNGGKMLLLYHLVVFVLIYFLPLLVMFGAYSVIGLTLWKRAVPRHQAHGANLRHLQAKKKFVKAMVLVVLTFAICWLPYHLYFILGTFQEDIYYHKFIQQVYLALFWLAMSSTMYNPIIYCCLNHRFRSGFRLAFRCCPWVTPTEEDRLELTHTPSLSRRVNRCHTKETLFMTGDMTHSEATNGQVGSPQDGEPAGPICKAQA
Description: Binding of NKA-[33P]phosphopeptide A to NK2 receptors on CHO cells (whole cell). As for the experimental part:
as §2, §3

Assay [4] has as its target T4, ObR-Fc (Homo sapiens, UniProt P48357).
T4 construct: containing the extracellular domain of the ObR fused to the Fc region of human IgG; purchased R&D Systems, Minneapolis, Minn
T4 sequence (P48357 22-839 limits assumed): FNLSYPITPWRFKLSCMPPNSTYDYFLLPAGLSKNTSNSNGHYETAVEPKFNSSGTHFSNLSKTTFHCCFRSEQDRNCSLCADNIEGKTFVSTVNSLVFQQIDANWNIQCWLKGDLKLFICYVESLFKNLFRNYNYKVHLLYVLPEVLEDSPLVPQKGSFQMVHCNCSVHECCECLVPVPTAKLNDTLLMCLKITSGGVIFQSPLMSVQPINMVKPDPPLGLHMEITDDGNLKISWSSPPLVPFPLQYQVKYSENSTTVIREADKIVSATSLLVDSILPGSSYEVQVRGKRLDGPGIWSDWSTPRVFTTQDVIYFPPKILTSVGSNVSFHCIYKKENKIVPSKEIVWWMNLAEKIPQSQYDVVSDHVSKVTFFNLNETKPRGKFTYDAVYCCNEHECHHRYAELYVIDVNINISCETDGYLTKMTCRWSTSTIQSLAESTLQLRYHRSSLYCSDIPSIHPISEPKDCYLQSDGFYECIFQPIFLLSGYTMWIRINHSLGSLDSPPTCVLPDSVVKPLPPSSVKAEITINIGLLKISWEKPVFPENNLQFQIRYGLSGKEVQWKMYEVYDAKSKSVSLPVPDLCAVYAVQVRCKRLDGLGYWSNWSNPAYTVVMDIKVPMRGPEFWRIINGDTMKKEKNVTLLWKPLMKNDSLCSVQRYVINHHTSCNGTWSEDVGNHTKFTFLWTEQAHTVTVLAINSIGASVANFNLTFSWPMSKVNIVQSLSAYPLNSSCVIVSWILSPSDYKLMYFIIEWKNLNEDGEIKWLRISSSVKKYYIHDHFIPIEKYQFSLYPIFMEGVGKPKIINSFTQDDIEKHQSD
Description: Saturation binding of leptin-[33P]phosphopeptide A to ObR-Fc surface-coated plates. To be noted: at the highest concentration of labeled ligand. As for the experimental part:
as §1
The cytokine receptor for leptin, the Ob receptor (ObR), was studied as a soluble Fc-fusion protein containing the extracellular domain of the ObR fused to the Fc region of human IgG (R&D Systems, Minneapolis, Minn.). The ligand for this receptor, leptin (R&D Systems) was phosphorylated according to the method of invention as described above.

Assay [5] deals with NK2 receptor recombinantly expressed in CHO cells. Kind of assay: saturation radioligand binding, CHO cells, 160,000 cells/assay (FIG. 9A).
Chain of NK2 receptor recombinantly expressed in CHO cells (P21452 whole entry): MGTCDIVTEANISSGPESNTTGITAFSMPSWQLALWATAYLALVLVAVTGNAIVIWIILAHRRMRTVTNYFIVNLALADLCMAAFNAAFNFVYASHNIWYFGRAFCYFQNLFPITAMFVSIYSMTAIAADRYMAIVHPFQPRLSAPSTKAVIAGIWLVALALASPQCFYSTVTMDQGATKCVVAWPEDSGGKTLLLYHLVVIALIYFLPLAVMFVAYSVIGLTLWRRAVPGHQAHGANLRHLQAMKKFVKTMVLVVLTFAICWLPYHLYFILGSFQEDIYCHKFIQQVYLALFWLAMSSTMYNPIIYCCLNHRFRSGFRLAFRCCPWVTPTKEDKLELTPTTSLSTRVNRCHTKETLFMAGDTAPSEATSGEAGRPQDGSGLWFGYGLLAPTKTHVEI
Where [6] appears, read: saturation binding, 160,000 cells/assay.

Take “N-α-acetyl-S-[Epo-Fc-8-amido-(6-aminothioacetyl)hexonyl]cys-ser-arg-arg-ala-[^33PO3]phosphoser-val-tyr-amide [Epo-Fc-[^33P]phosphopeptide A]”: the “amount detected at the highest concentration of labeled ligand” value in assay [1] was about 20 Fmol/well.

As to “N-α-acetyl-S-[IL8-amido-(6-aminothioacetyl)hexonyl]cys-ser-arg-arg-ala-[^33PO3]phosphoser-val-tyr-amide1-4 [IL8-[^33P]phosphopeptide A]”, the “specific binding to its receptor” value in assay [2] (33P-labeled ligand, FIG. 8) is “bound specifically”. The Bmax in assay [2] (setting [6]) was 110,000 receptors/cell.

For “N-α-acetyl-S-[NKA-lys2N^e-amido-(6-aminothioacetyl)hexonyl]cys-ser-arg-arg-ala-[^33PO3]phosphoser-val-tyr-amide (peptide 1 HKTRSFVGLM-NH2; peptide 2 Ac-CSRRASVY-NH2; bridge I:2-II:1; not fully specified (some residues, bridges); printed as N-α-acetyl-S-[NKA-lys2N^e-amido-(6-aminothioacetyl)hexonyl]cys-ser-arg-arg-ala-[^33PO3]phosphoser-val-tyr-amide; also: phosphoserine carries [33P]phosphate label) [NKA-[^33P]phosphopeptide A]”, the “specific binding to its receptor” value in assay [3] (33P-labeled ligand, FIG. 8) is “bound specifically”. In assay [3] (setting [6]), the Bmax is 700,000 receptors/cell.

As to “N-α-acetyl-S-[leptin-amido-)6-aminothioacetyl)hexonyl]cys-ser-arg-arg-ala-[^33PO3]phosphoser-val-tyr-amide1-2 [leptin [^33P]phosphopeptide A]”, the saturation binding result in assay [4] is on record as “Binding was detected”.

B1: Neurokinin A-[^33PO3]peptide A conjugate (NKA-lys2N^e-[^33PO3]peptide A) (peptide)
peptide 1: HKTRSFVGLM-NH2
peptide 2: Ac-CSRRA[pS]VY-NH2
modifications: bridge I:2-II:1; not fully specified (some residues, bridges); printed as N-&agr,-acetyl-S-[NKA-lys2Ne-amido-(6-aminothioacetyl)hexonyl]cys-ser-arg-arg-ala-[33PO3]phosphoser-val-tyr-amide; also: 33P-labelled phosphate on phosphoserine of chain 2
As to B1, the Bmax (receptors/cell) in assay [5] is 700000.
